Experiments:
[1] = tested on: L-amino acid oxidase derived from Coprinus sp.; settings: Japanese Un-examined patent publication No. 2001-069974, read-out: Km value for L-tryptophan; cited from earlier work
[2] = tested on: VioA, L-tryptophan oxidase derived from Chromobacterium violaceum, SEQ ID NO: 1; settings: reported in Balibar and Walsh (2006) Biochemistry 45, 15444-15457; cited from earlier work
[3] = substrate: N[C@@H](Cc1c[nH]c2ccccc12)C(=O)O; assay: Km value of L-tryptophan oxidase StaO for L-tryptophan (peroxidase-coupled, absorbance at 505 nm); assay type: biochemical, Streptomyces sp. TA-A0724; settings: other: StaO, 20 mM tris-hydrochloric acid buffer pH 8.0, 30° C., 0-500 μM L-tryptophan, 0.5 mU/mL enzyme
Text: StaO is an enzyme that has the amino acid sequence given in SEQ ID NO: 2 in the Sequence Listing, that has oxidase activity of acting on L-tryptophan in the presence of oxygen and water to produce hydrogen peroxide and ammonia, that has oxidase activity on L-phenylalanine falling within a range of 0 to 3% of the oxidase activity on L-tryptophan, and that has no oxidase activity on the protein-constituting amino acids other than L-tryptophan and L-phenylalanine. StaO can be derived from Streptomyces sp. TA-A0724. The gene encoding StaO was discovered in the biosynthesis gene cluster of staurosporine, an antibiotic produced by the above bacterium (Onaka, H., Taniguchi, S., Igarashi, Y., and Furumai, T. (2002) J Antibiot 55, 1063-1071). This gene has no significant homology with the VioA gene, nor is there any example of biological analysis of the genetic product. Thus, the properties of the genetic product were unknown. […]
The supernatant of each solution of the ruptured expression strains was loaded onto an Ni Sepharose column made by GE Healthcare, washed with 20 mM Tris-HCl and 50 mM imidazole (pH 8.0), and then eluted with a solution of 20 mM Tris-HCl and 500 mM imidazole (pH 8.0) to purify and recover the target enzyme. The base sequences of these enzymes were determined, and are shown as SEQ ID NOS: 3 and 4. […]

[4] = Dependence on reaction temperature; assay type: biochemical
Method: StaO and VioA activity measurement was conducted at reaction temperatures of 20, 30, 40, 50, and 60° C. An activity measurement reaction solution of 20 mM of tris-hydrochloric acid buffer (pH 8.0), 1 mM of L-tryptophan, 1 mM of phenol, 1 mM of 4-aminoantipyrine, 15 U/mL of horseradish-derived peroxidase, and L-tryptophan oxidase enzyme solution was employed. Everything in the above reaction solution but the peroxidase and L-tryptophan oxidase enzyme solution was admixed, and 10 minutes of preincubation was conducted at various temperatures. While maintaining the temperature of the reaction solution, the peroxidase and the L-tryptophan oxidase enzyme solution were added and the reaction was begun. The change in absorbance at 505 nm was rapidly measured. […] The effect of deactivation at high temperature became marked in StaO at 60° C. and in VioA at 50° C. and above, making it difficult to accurately measure the activity.

[5] = Thermal stability (residual activity after 1 hour heat treatment); assay type: physicochemical; settings: activity prior to heat treatment as 100, StaO in 20% glycerol, VioA in 10% glycerol
Method: The activity was measured after heat treating StaO enzyme solutions containing 20% glycerol and VioA enzyme solutions containing 10% glycerol for 1 hour at 30, 40, 50, 60, and 70° C. […] At heat treatments of 50° C. and above, the residual activity dropped below the detection limit.

[6] = Stability on storage at 4° C. at various glycerol concentrations; assay type: physicochemical
Method: Glycerol was added to final concentrations of 0 to 50% (v/v) to StaO and VioA purified enzyme solutions. The enzymatic solutions were stored at 4° C., sampled over time, and the activity was measured. The change over time in the residual activity of StaO and VioA stored in the presence of various glycerol concentrations are given in FIGS. 7 and 8.

[7] = Substrate specificity for amino acids of L-tryptophan oxidase (peroxidase-coupled, absorbance at 505 nm); assay type: biochemical
Method: A reaction solution of 20 mM tris-hydrochloric acid buffer (pH 8.0), 5 mM L-tryptophan, 1 mM phenol, 1 mM 4-aminoantipyrine, 15 U/mL horseradish-derived peroxidase, and some quantity of L-tryptophan oxidase enzyme solution was prepared and the change in absorbance at 505 nm was measured at 30° C. The mol absorbance coefficient of quinoneimine dye was considered to be 6.4 mM^−1·cm^−1. Activity generating 1 μmol of hydrogen peroxide per minute was defined as 1 U. The detection limit of this method was 0.5%.
Reaction solutions each containing 20 mM of tris-hydrochloric acid buffer (pH 8.0), 1 mM of phenol, 1 mM of 4-aminoantipyrine, 15 U/mL of horseradish-derived peroxidase, 0.2 to 20 mU/mL of L-tryptophan oxidase, and 0.5 mM of an amino acid (one of the 20 protein-constituting amino acids) were prepared and the change in absorbance at 505 nm was measured at 30° C. The relative activity for each amino acid was calculated from the measurement values obtained, yielding the results given in Table 1. The detection limit of this method was 0.5%.

[8] = activity at 20° C. as 100, 1 mM L-tryptophan, pH 8.0
[9] = activity at 20° C. as 100, * = estimated value when greatly impacted by thermal deactivation
[10] = 0.5 mM amino acid, pH 8.0, 30° C., No activity = at or below detection limit 0.5%

## N[C@@H](Cc1c[nH]c2ccccc12)C(=O)O [L-tryptophan]
[1]
  Km: 650 µM
[2]
  Km: 30 µM

B1: StaO, L-tryptophan oxidase derived from Streptomyces sp. TA-A0724, SEQ ID NO: 2 (Streptomyces sp. TP-A0274) (protein)
chain: MTAPLQDSDGPDDAIGGPKQVTVIGAGIAGLVTAYELERLGHHVQIIEGSDDIGGRIHTHRFSGAGGPGPFAEMGAMRIPAGHRLTMHYIAELGLQNQVREFRTLFSDDAAYLPSSAGYLRVREAHDTLVDEFATGLPSAHYRQDTLLFGAWLDASIRAIAPRQFYDGLHNDIGVELLNLVDDIDLTPYRCGTARNRIDLHALFADHPRVRASCPPRLERFLDDVLDETSSSIVRLKDGMDELPRRLASRIRGKISLGQEVTGIDVHDDTVTLTVRQGLRTVTRTCDYVVCTIPFTVLRTLRLTGFDQDKLDIVHETKYWPATKIAFHCREPFWEKDGISGGASFTGGHVRQTYYPPAEGDPALGAVLLASYTIGPDAEALARMDEAERDALVAKELSVMHPELRRPGMVLAVAGRDWGARRWSRGAATVRWGQEAALREAERRECARPQKGLFFAGEHCSSKPAWIEGAIESAIDAAHEIEWYEPRASRVFAASRLSRSDRSA
notes: peroxidase-coupled assay
[3]
  Km: 19 μM μM

B2: StaO: L-tryptophan oxidase with the amino acid sequence of SEQ ID NO: 2, derived from Streptomyces sp. TA-A0724, His-tagged, expressed in E. coli (protein)
chain: MTAPLQDSDGPDDAIGGPKQVTVIGAGIAGLVTAYELERLGHHVQIIEGSDDIGGRIHTHRFSGAGGPGPFAEMGAMRIPAGHRLTMHYIAELGLQNQVREFRTLFSDDAAYLPSSAGYLRVREAHDTLVDEFATGLPSAHYRQDTLLFGAWLDASIRAIAPRQFYDGLHNDIGVELLNLVDDIDLTPYRCGTARNRIDLHALFADHPRVRASCPPRLERFLDDVLDETSSSIVRLKDGMDELPRRLASRIRGKISLGQEVTGIDVHDDTVTLTVRQGLRTVTRTCDYVVCTIPFTVLRTLRLTGFDQDKLDIVHETKYWPATKIAFHCREPFWEKDGISGGASFTGGHVRQTYYPPAEGDPALGAVLLASYTIGPDAEALARMDEAERDALVAKELSVMHPELRRPGMVLAVAGRDWGARRWSRGAATVRWGQEAALREAERRECARPQKGLFFAGEHCSSKPAWIEGAIESAIDAAHEIEWYEPRASRVFAASRLSRSDRSA
modifications: His tag; Streptomyces sp. TP-A0274
notes: TA-A0724, His-tagged, expressed in E. coli
[4]; [8]
  Relative activity at reaction temperature 20° C.: 100
  Relative activity at reaction temperature 30° C.: 156
  Relative activity at reaction temperature 40° C.: 268
[4]; [9]
  Relative activity at reaction temperature 50° C.: 427
  Relative activity at reaction temperature 60° C.: 480*
[4]; activity measurement at 20-60° C.
  Reaction temperature at which the effect of deactivation became marked: 60 °C
[5]
  Relative (residual) activity following heat treatment at 30° C.: 73
  Relative (residual) activity following heat treatment at 40° C.: 1
  Relative (residual) activity following heat treatment at ≧50° C.: <1
[6]; 30% or more of glycerol added
  Stability of enzyme solution on storage: high stability
[6]; buffer only, no glycerol
  Stability of enzyme solution on storage: unstable
[7]; 0.5 mM amino acid, pH 8.0, 30° C., L-tryptophan = 100%
  Relative activity, L-tryptophan: 100%
[7]; [10]
  Relative activity, L-tyrosine: No activity
  Relative activity, other amino acids (17 listed in the footnote): No activity
[7]; relative activity below the detection limit (0.5%)
  Reactivity to amino acids other than L-tryptophan: did not exhibit reactivity

From US9695460B2, “Method of analyzing L-tryptophan in biological samples, and kit used therein” (Toyama Prefecture, priority 2011, dated 2017)
